Molecular target: T1, GroEL chaperonin ( (purified from Escherichia …, UniProt P0A6F5 1-548))
T1 construct: GroEL chaperonin, purified from Escherichia coli cells (HB101 strain) after expression of the plasmid pGroE4
Test: fluorescence polarisation; 30×10^-9 M denatured fluorescein-labeled protein titrated with GroEL in 20 mM Tris–HCl, pH 7.5, 20 mM DTT, 10 mM MgCl2, 300 mM NaCl; apparent constant, counted on GroEL cavities
Conditions: both partners purified

T1 sequence (P0A6F5 whole entry): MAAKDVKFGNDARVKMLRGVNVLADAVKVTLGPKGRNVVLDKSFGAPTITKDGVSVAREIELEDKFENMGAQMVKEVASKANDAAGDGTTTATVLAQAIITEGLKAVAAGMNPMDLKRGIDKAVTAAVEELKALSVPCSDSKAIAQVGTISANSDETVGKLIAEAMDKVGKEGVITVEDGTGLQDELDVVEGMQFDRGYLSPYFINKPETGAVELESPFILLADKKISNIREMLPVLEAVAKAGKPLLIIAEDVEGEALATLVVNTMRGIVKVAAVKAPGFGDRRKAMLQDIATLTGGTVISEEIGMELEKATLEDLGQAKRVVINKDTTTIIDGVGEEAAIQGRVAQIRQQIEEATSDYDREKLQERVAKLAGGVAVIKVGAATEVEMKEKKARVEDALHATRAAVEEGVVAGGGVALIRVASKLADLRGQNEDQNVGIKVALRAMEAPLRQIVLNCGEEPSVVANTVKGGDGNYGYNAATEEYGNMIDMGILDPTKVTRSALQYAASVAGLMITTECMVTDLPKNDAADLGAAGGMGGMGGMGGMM

Kd: 1.6 nM
B1: fluorescein-labeled human α-lactalbumin (natural protein, UniProt P00709 20-142, looked up)
chain: KQFTKCELSQLLKDIDGYGGIALPELICTMFHTSGYDTQAIVENNESTEYGLFQISNKLWCKSSQVPQSRNICDISCDKFLDDDITDDIMCAKKILDIKGIDYWLAHKALCTEKLEQWLCEKL
modifications: fluorescein label (fluorescein isothiocyanate), position not stated
notes: Human α-lactalbumin; The same labelled protein was used native (20 mM Tris-HCl, pH 7.5) and denatured (buffer with 20 mM DTT); the assays tell the two states apart; also called native α-lactalbumin; denatured α-lactalbumin; source: bought: Sigma (USA), used without additional purification; labelled with fluorescein isothiocyanate, PD-10 and MonoQ

— publication PMC4735476, “Dataset concerning GroEL chaperonin interaction with proteins” (Data in Brief, 2016)
